Assay results from patent publication US20220298218A1 (ANTAG THERAPEUTICS, published 2022).
Where no end group is shown, it is not given here. [ ]: non-standard residue; d: D form. The star is where a group is joined. C16 diacid = O=C(O)CCCCCCCCCCCCCCC(=O)*; Nle = CCCC[C@H](N)C(=O)O; Aib = CC(C)(N)C(=O)O

Target: T1, human GIP receptor (human, UniProt P48546 22-466)
T1 sequence (looked up): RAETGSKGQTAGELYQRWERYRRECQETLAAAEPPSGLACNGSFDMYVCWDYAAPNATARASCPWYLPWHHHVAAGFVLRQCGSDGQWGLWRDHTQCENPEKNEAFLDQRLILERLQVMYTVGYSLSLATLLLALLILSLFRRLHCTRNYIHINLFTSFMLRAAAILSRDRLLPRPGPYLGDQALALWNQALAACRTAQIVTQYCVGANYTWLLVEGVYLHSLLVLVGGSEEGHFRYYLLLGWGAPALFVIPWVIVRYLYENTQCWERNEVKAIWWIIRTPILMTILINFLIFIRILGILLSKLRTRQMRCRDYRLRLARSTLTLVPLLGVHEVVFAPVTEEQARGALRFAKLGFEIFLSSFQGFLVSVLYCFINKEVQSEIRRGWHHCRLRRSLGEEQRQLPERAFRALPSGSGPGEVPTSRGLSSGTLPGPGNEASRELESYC
Experiment: cell-based or functional assay

B1: AT615 (peptide)
peptide: EGTFISEYS[Aib]A[Nle]EKIK(C16 diacid)QQDFVEWLLAQKPSSGAPPPS-OH
modifications: N-terminus assumed
SMILES: CCCC[C@H](NC(=O)[C@H](C)NC(=O)C(C)(C)NC(=O)[C@H](CO)NC(=O)[C@H](Cc1ccc(O)cc1)NC(=O)[C@H](CCC(=O)O)NC(=O)[C@H](CO)NC(=O)[C@@H](NC(=O)[C@H](Cc1ccccc1)NC(=O)[C@@H](NC(=O)CNC(=O)[C@@H](N)CCC(=O)O)[C@@H](C)O)[C@@H](C)CC)C(=O)N[C@@H](CCC(=O)O)C(=O)N[C@@H](CCCCN)C(=O)N[C@H](C(=O)N[C@@H](CCCCNC(=O)CCCCCCCCCCCCCCC(=O)O)C(=O)N[C@@H](CCC(N)=O)C(=O)N[C@@H](CCC(N)=O)C(=O)N[C@@H](CC(=O)O)C(=O)N[C@@H](Cc1ccccc1)C(=O)N[C@H](C(=O)N[C@@H](CCC(=O)O)C(=O)N[C@@H](Cc1c[nH]c2ccccc12)C(=O)N[C@@H](CC(C)C)C(=O)N[C@@H](CC(C)C)C(=O)N[C@@H](C)C(=O)N[C@@H](CCC(N)=O)C(=O)N[C@@H](CCCCN)C(=O)N1CCC[C@H]1C(=O)N[C@@H](CO)C(=O)N[C@@H](CO)C(=O)NCC(=O)N[C@@H](C)C(=O)N1CCC[C@H]1C(=O)N1CCC[C@H]1C(=O)N1CCC[C@H]1C(=O)N[C@@H](CO)C(=O)O)C(C)C)[C@@H](C)CC
For B1, the “cAMP agonism % Emax” value was 0%, the “cAMP antagonism” value was 7.94 nM and the “cAMP antagonism % inhib” value was 97%. The “cAMP antagonism pIC50” value was 8.1.

B2: AT613 (peptide)
peptide: EGTFISEYSIAMEKIK(C16 diacid)QQEFVQWLLAQKPSSGAPPPS-OH
modifications: N-terminus assumed
SMILES: CC[C@H](C)[C@H](NC(=O)[C@H](CO)NC(=O)[C@H](Cc1ccc(O)cc1)NC(=O)[C@H](CCC(=O)O)NC(=O)[C@H](CO)NC(=O)[C@@H](NC(=O)[C@H](Cc1ccccc1)NC(=O)[C@@H](NC(=O)CNC(=O)[C@@H](N)CCC(=O)O)[C@@H](C)O)[C@@H](C)CC)C(=O)N[C@@H](C)C(=O)N[C@@H](CCSC)C(=O)N[C@@H](CCC(=O)O)C(=O)N[C@@H](CCCCN)C(=O)N[C@H](C(=O)N[C@@H](CCCCNC(=O)CCCCCCCCCCCCCCC(=O)O)C(=O)N[C@@H](CCC(N)=O)C(=O)N[C@@H](CCC(N)=O)C(=O)N[C@@H](CCC(=O)O)C(=O)N[C@@H](Cc1ccccc1)C(=O)N[C@H](C(=O)N[C@@H](CCC(N)=O)C(=O)N[C@@H](Cc1c[nH]c2ccccc12)C(=O)N[C@@H](CC(C)C)C(=O)N[C@@H](CC(C)C)C(=O)N[C@@H](C)C(=O)N[C@@H](CCC(N)=O)C(=O)N[C@@H](CCCCN)C(=O)N1CCC[C@H]1C(=O)N[C@@H](CO)C(=O)N[C@@H](CO)C(=O)NCC(=O)N[C@@H](C)C(=O)N1CCC[C@H]1C(=O)N1CCC[C@H]1C(=O)N1CCC[C@H]1C(=O)N[C@@H](CO)C(=O)O)C(C)C)[C@@H](C)CC
For B2, the “cAMP agonism % Emax” value was 0%, the “cAMP antagonism” value was 1.47 nM and the “cAMP antagonism % inhib” value was 100%. The “cAMP antagonism pIC50” value was 8.8.

B3: AT617 (peptide)
peptide: EGTFISDYSIAMDKIK(C16 diacid)QQDFVEWLLAQKPSSGAPPPS-OH
modifications: N-terminus assumed
SMILES: CC[C@H](C)[C@H](NC(=O)[C@H](CO)NC(=O)[C@H](Cc1ccc(O)cc1)NC(=O)[C@H](CC(=O)O)NC(=O)[C@H](CO)NC(=O)[C@@H](NC(=O)[C@H](Cc1ccccc1)NC(=O)[C@@H](NC(=O)CNC(=O)[C@@H](N)CCC(=O)O)[C@@H](C)O)[C@@H](C)CC)C(=O)N[C@@H](C)C(=O)N[C@@H](CCSC)C(=O)N[C@@H](CC(=O)O)C(=O)N[C@@H](CCCCN)C(=O)N[C@H](C(=O)N[C@@H](CCCCNC(=O)CCCCCCCCCCCCCCC(=O)O)C(=O)N[C@@H](CCC(N)=O)C(=O)N[C@@H](CCC(N)=O)C(=O)N[C@@H](CC(=O)O)C(=O)N[C@@H](Cc1ccccc1)C(=O)N[C@H](C(=O)N[C@@H](CCC(=O)O)C(=O)N[C@@H](Cc1c[nH]c2ccccc12)C(=O)N[C@@H](CC(C)C)C(=O)N[C@@H](CC(C)C)C(=O)N[C@@H](C)C(=O)N[C@@H](CCC(N)=O)C(=O)N[C@@H](CCCCN)C(=O)N1CCC[C@H]1C(=O)N[C@@H](CO)C(=O)N[C@@H](CO)C(=O)NCC(=O)N[C@@H](C)C(=O)N1CCC[C@H]1C(=O)N1CCC[C@H]1C(=O)N1CCC[C@H]1C(=O)N[C@@H](CO)C(=O)O)C(C)C)[C@@H](C)CC
With B3 the “cAMP agonism % Emax” value was 0%, the “cAMP antagonism” value was 0.794 nM and the “cAMP antagonism % inhib” value was 91%. The “cAMP antagonism pIC50” value was 9.1.

B4: AT616 (peptide)
peptide: EGTFISEYSI[Aib]MEKIK(C16 diacid)QQDFVEWLLAQKPSSGAPPPS-OH
modifications: N-terminus assumed
SMILES: CC[C@H](C)[C@H](NC(=O)[C@H](CCCCN)NC(=O)[C@H](CCC(=O)O)NC(=O)[C@H](CCSC)NC(=O)C(C)(C)NC(=O)[C@@H](NC(=O)[C@H](CO)NC(=O)[C@H](Cc1ccc(O)cc1)NC(=O)[C@H](CCC(=O)O)NC(=O)[C@H](CO)NC(=O)[C@@H](NC(=O)[C@H](Cc1ccccc1)NC(=O)[C@@H](NC(=O)CNC(=O)[C@@H](N)CCC(=O)O)[C@@H](C)O)[C@@H](C)CC)[C@@H](C)CC)C(=O)N[C@@H](CCCCNC(=O)CCCCCCCCCCCCCCC(=O)O)C(=O)N[C@@H](CCC(N)=O)C(=O)N[C@@H](CCC(N)=O)C(=O)N[C@@H](CC(=O)O)C(=O)N[C@@H](Cc1ccccc1)C(=O)N[C@H](C(=O)N[C@@H](CCC(=O)O)C(=O)N[C@@H](Cc1c[nH]c2ccccc12)C(=O)N[C@@H](CC(C)C)C(=O)N[C@@H](CC(C)C)C(=O)N[C@@H](C)C(=O)N[C@@H](CCC(N)=O)C(=O)N[C@@H](CCCCN)C(=O)N1CCC[C@H]1C(=O)N[C@@H](CO)C(=O)N[C@@H](CO)C(=O)NCC(=O)N[C@@H](C)C(=O)N1CCC[C@H]1C(=O)N1CCC[C@H]1C(=O)N1CCC[C@H]1C(=O)N[C@@H](CO)C(=O)O)C(C)C
In the case of B4, the “cAMP agonism % Emax” value is reported as 0%, the “cAMP antagonism” value is reported as 0.473 nM and the “cAMP antagonism % inhib” value is reported as 100%. The “cAMP antagonism pIC50” value was 9.3.

B5: AT614 (peptide)
peptide: EGTFISEYSIAMEKIK(C16 diacid)QQDFVEWLLAQKPSSGAPPPS-OH
modifications: N-terminus assumed
SMILES: CC[C@H](C)[C@H](NC(=O)[C@H](CO)NC(=O)[C@H](Cc1ccc(O)cc1)NC(=O)[C@H](CCC(=O)O)NC(=O)[C@H](CO)NC(=O)[C@@H](NC(=O)[C@H](Cc1ccccc1)NC(=O)[C@@H](NC(=O)CNC(=O)[C@@H](N)CCC(=O)O)[C@@H](C)O)[C@@H](C)CC)C(=O)N[C@@H](C)C(=O)N[C@@H](CCSC)C(=O)N[C@@H](CCC(=O)O)C(=O)N[C@@H](CCCCN)C(=O)N[C@H](C(=O)N[C@@H](CCCCNC(=O)CCCCCCCCCCCCCCC(=O)O)C(=O)N[C@@H](CCC(N)=O)C(=O)N[C@@H](CCC(N)=O)C(=O)N[C@@H](CC(=O)O)C(=O)N[C@@H](Cc1ccccc1)C(=O)N[C@H](C(=O)N[C@@H](CCC(=O)O)C(=O)N[C@@H](Cc1c[nH]c2ccccc12)C(=O)N[C@@H](CC(C)C)C(=O)N[C@@H](CC(C)C)C(=O)N[C@@H](C)C(=O)N[C@@H](CCC(N)=O)C(=O)N[C@@H](CCCCN)C(=O)N1CCC[C@H]1C(=O)N[C@@H](CO)C(=O)N[C@@H](CO)C(=O)NCC(=O)N[C@@H](C)C(=O)N1CCC[C@H]1C(=O)N1CCC[C@H]1C(=O)N1CCC[C@H]1C(=O)N[C@@H](CO)C(=O)O)C(C)C)[C@@H](C)CC
With B5 the “cAMP agonism % Emax” value was 0%, the “cAMP antagonism” value was 1.08 nM and the “cAMP antagonism % inhib” value was 100%. For the same binder, the “cAMP antagonism pIC50” value was 9.
